# From patent publication US20250340655A1, “EPHA2-TARGETING ANTIBODIES AND THEIR APPLICATIONS IN CANCER TREATMENT” (TAIPEI MEDICAL UNIVERSITY, priority 2022, published 2025)
# How the values were obtained:
# [1] = tested on: EphA2pep_P1, EphA2pep_P2, EphA2pep_PIP2 synthetic peptides; test: Peptide ELISA for epitope definition; type: binding
# From the text: (§1) We used peptide enzyme-linked immunosorbent assay (ELISA) to identify the designed epitope on EphA2; the BSA-conjugated peptides EphA2pep_P1 (BSA-[…]) and EphA2pep_P2 (BSA-[…]) each represent the two segments of the linear epitope designed on EphA2. EphA2pep_PIP2 (BSA-[…]) represents the two linear epitope sequences connected by a linker. These peptides were synthesized and conjugated with BSA (Kelowna International Scientific). The BSA-conjugated peptides were individually coated on a 96-well microplate at 4° C. overnight. After the wells were blocked with 3% BSA, IgG hSD5 was added and incubated. Next, an HRP-conjugated anti-HA tag antibody (Cell Signaling Technology) was used to detect bound scFv. Finally, the TMB substrate was added for development, and the reaction was stopped by adding 1 N HCl. Absorbance was measured by determining the OD at 450 nm. A dot blot assay was used to detect the binding of IgG hSD5 to the synthesized peptides; […] of individual peptides (1 mg/mL; in triplicate) were dropped on the NC membrane and maintained at RT for complete absorption. Blocking with 3% BSA was performed at RT for 1 h. Then, IgG hSD5 (10 μg/mL) was added, and the reaction was allowed to proceed for 1 h at RT. After the membrane was washed, the HRP-conjugated anti-HA tag antibody was added, and the reaction was allowed to proceed for 1 h at RT. Lastly, DAB was used to initiate the coloration reaction.
# To determine whether the antibody hSD5 can recognize two antigen fragments simultaneously, peptide synthesis of the two antigen fragments was performed to test the binding reaction of antibody IgG hSD5. The ELISA was used to test the binding reactivity of the antibody hSD5 to synthetic peptides. The two short peptides located on the designed activation site of EphA2 are EphA2pep_P1 and EphA2pep_P2, respectively. The long peptide formed by linking the two short peptides is EphA2pep_PIP2. NCIpep and NC2pep are two irrelevant peptides as the negative control. EphA2 ECD is a recombinant EphA2 extracellular domain protein.
# [2] = tested on: EphA2pep_P1 and EphA2pep_P2 synthetic peptides; test: Dot blot assay with synthetic peptides; type: binding; details: dot blot (FIG. 9B)
# From the text: as §1, with “Lastly, DAB was used to initiate the coloration reaction.” left out
# [3] = biological target: T1, endogenous EphA2 molecules on the four brain tumor cell lines (GBM8901, LN229, T98G and U87MG) (Homo sapiens, UniProt P29317); test: Flow cytometry binding on brain tumor cell lines; details: flow cytometry (FIG. 16B)
# T1 construct: identifying endogenous EphA2 molecules on the four strains of brain tumor cell lines; endogenous in cells; host or cells: GBM8901, LN229, T98G, U87MG
# T1 sequence (P29317 24-976, stated change not applied): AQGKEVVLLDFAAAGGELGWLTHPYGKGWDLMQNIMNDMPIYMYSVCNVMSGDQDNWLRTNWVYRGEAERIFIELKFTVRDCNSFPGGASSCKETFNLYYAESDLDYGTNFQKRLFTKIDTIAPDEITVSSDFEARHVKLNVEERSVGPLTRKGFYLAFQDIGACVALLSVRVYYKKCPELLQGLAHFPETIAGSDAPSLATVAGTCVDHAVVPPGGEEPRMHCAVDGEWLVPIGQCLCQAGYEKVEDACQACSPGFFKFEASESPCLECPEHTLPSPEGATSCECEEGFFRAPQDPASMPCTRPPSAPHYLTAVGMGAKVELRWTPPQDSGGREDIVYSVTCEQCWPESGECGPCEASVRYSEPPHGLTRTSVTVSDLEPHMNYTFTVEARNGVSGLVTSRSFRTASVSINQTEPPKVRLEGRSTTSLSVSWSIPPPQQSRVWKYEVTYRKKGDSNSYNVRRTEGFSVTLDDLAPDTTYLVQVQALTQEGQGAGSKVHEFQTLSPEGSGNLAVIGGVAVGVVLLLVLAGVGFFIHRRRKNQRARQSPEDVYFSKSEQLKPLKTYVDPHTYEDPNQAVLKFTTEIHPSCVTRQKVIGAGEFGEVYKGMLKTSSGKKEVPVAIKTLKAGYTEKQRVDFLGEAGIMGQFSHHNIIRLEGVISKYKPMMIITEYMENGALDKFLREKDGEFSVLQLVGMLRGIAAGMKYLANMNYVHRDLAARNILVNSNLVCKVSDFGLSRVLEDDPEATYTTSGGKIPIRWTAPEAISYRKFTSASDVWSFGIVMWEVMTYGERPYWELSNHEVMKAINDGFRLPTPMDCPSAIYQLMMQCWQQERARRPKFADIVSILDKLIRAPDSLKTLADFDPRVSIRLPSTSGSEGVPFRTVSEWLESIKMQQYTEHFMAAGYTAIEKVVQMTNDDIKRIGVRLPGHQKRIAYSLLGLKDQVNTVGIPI
# From the text: Flow cytometry was used to analyze the response of hSD5 IgG in identifying endogenous EphA2 molecules on the four strains of brain tumor cell lines. PC represents the use of commercial Ab to determine the expression of EphA2 on cancer cells; NC represents the control group with irreverent of the isotype IgG1 antibody. (FIG. 16B)
# The hSD5 was used to identify endogenous EphA2 molecules on the four brain tumor cell lines by flow cytometry analysis. PC uses a commercial anti-EphA2 antibody, and NC is the control group with irreverent of the isotype IgG1.
molecule,measurement,setting,value
"IgG hSD5: complete humanized anti-EphA2 IgG (IgG1) of hSD5 (antibody, V domains shown) VH: QVQLVESGGGLVQPGGSLRLSCAASGFTFSDYGMGWVRQAPGKGLEWVAGISAAGSFTPYGAAVKGRFTISRDNSKNTVYLQMNSLRAEDTAVYYCARIPSGYRAGEIYTWGQGTLVTVSS VL: LTQPPSVSVSPGQTVRITCSGSSGSYGWYQQKSPGQAPVTLIYDNDKRPSGIPERFSGSSSGSTSTLTISGVQAEDEADYYCGSADSSTYVGMFGGGTKLTVL",binding to long peptide EphA2pep_PIP2,[1]; peptide ELISA (FIG. 9A),exhibited a binding response
same,binding to short peptides EphA2pep_P1 and EphA2pep_P2,[1]; peptide ELISA (FIG. 9A),individually recognized
same,interaction with EphA2pep_P1 compared with EphA2pep_P2,[1]; peptide ELISA (FIG. 9A),stronger
same,cross-binding to two irrelevant peptides,"[1]; peptide ELISA, NC peptides (FIG. 9A)",did not exhibit a cross-binding reaction
same,binding reaction with EphA2pep_P1 compared with EphA2pep_P2,[2],stronger
same,recognition of EphA2pep_P1 and EphA2pep_P2,[2],can recognize both the antigen fragments
same,binding response to EphA2 molecules on brain cancer cells,[3],significant binding response
